Laboratory results reported in article PMC7110113, “Termination of non‐coding transcription in yeast relies on both an RNA Pol II CTD interaction domain and a CTD‐mimicking region in Sen1” (The EMBO Journal, 2020).
Ends that are not written are not given here. FAM = 5,6-carboxyfluorescein

T1: Nrd1 CID S25D (S. cerevisiae, UniProt P53617 1-153, S25D)
T1 construct: Nrd1 CID, S. cerevisiae; source: recombinant, purified as described previously (Kubicek et al, 2012)
T1 sequence (looked up): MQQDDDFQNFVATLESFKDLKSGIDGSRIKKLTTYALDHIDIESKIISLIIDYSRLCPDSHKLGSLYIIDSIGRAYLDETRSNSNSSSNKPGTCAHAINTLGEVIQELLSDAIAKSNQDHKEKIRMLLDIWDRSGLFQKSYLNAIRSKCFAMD

T2: Nrd1 CID (S. cerevisiae, UniProt P53617 1-153)
T2 construct: The NMR sample was uniformly 15N,13C-labelled; also called wild-type Nrd1 CID; source: recombinant, purified as described previously (Kubicek et al, 2012)
T2 sequence (looked up): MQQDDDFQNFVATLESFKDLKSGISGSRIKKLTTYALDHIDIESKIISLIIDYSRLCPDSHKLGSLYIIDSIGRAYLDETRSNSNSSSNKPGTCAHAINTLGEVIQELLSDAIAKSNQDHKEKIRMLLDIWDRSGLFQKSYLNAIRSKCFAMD


Legend:
[1] = target: Sen1 NIM peptide (Sen1 aa 2,052-2,063) (S. cerevisiae) (UniProt Q00416); test: fluorescence polarisation; fluorescence anisotropy, equilibrium binding of Nrd1 CID variants to FAM-labelled NIM peptides; 10°C, 50 mM Na2HPO4, 100 mM NaCl, pH 8; 1:1 model with non-specific binding (DynaFit)
[2] = target: Trf4 NIM peptide (S. cerevisiae); test: as above
[3] = target: T1, Nrd1 CID S25D; test: fluorescence polarisation; fluorescence anisotropy; N-terminally FAM-labelled NIM peptides with purified Nrd1 CID versions; 10°C, 50 mM Na2HPO4, 100 mM NaCl, pH 8; 1:1 model with non-specific binding (DynaFit); conditions: both partners purified
[4] = target: T2, Nrd1 CID; test: as above; conditions: both partners purified
[5] = target: T2, Nrd1 CID; test: NMR titration; [1H,15N] HSQC of Nrd1 CID titrated with NIM peptide, chemical shift perturbations; 20°C, 50 mM Na2HPO4, 100 mM NaCl, pH 8; conditions: both partners purified
[6] = target: Trf4 NIM peptide, FAM-labelled (S. cerevisiae); test: fluorescence polarisation; fluorescence anisotropy; N-terminally FAM-labelled NIM peptides with purified Nrd1 CID versions; 10°C, 50 mM Na2HPO4, 100 mM NaCl, pH 8; 1:1 model with non-specific binding (DynaFit)

| Molecule | Kd [2] [µM] | other results |
| --- | --- | --- |
| Nrd1 CID S25D (from UniProt P53617 1-153) (domain or fragment) | 53.9 | Kd [1]: 76.1 µM |
| {FAM}-DDDEDDYTPSIS (peptide, UniProt Q00416 2052-2063, looked up, The text prints D2052-D2053-D2054-E2055-D2056-D2057, Y2058, T2059, P2060, S2061 and I2062; source: synthetic peptide) [Sen1 NIM peptide, FAM-labelled] |  | binding result [3]: binds; Kd [4]: 1.2 ± 0.02 µM |
| DDDEDDYTPSIS (peptide, UniProt Q00416 2052-2063, looked up, The text prints D2052-D2053-D2054-E2055-D2056-D2057, Y2058, T2059, P2060, S2061 and I2062; it is surmised to be unlabelled; source: synthetic peptide) [Sen1 NIM peptide (NMR)] |  | binding result [5]: binds |
| Nrd1 CID (domain or fragment) MQQDDDFQNFVATLESFKDLKSGISGSRIKKLTTYALDHIDIESKIISLIIDYSRLCPDSHKLGSLYIIDSIGRAYLDETRSNSNSSSNKPGTCAHAINTLGEVIQELLSDAIAKSNQDHKEKIRMLLDIWDRSGLFQKSYLNAIRSKCFAMD |  | Kd [6]: 0.9 µM |
| Nrd1 CID L20D (domain or fragment) MQQDDDFQNFVATLESFKDDKSGISGSRIKKLTTYALDHIDIESKIISLIIDYSRLCPDSHKLGSLYIIDSIGRAYLDETRSNSNSSSNKPGTCAHAINTLGEVIQELLSDAIAKSNQDHKEKIRMLLDIWDRSGLFQKSYLNAIRSKCFAMD | 13.4 |  |
| Nrd1 CID R28D (domain or fragment) MQQDDDFQNFVATLESFKDLKSGISGSDIKKLTTYALDHIDIESKIISLIIDYSRLCPDSHKLGSLYIIDSIGRAYLDETRSNSNSSSNKPGTCAHAINTLGEVIQELLSDAIAKSNQDHKEKIRMLLDIWDRSGLFQKSYLNAIRSKCFAMD | 63.4 |  |
| Nrd1 CID I130K (domain or fragment) MQQDDDFQNFVATLESFKDLKSGISGSRIKKLTTYALDHIDIESKIISLIIDYSRLCPDSHKLGSLYIIDSIGRAYLDETRSNSNSSSNKPGTCAHAINTLGEVIQELLSDAIAKSNQDHKEKIRMLLDKWDRSGLFQKSYLNAIRSKCFAMD | 14.1 |  |

Continued by falling Kd [2], values first:

| Kd [2] [µM] | Molecule | other results |
| --- | --- | --- |
| 6.1 | Nrd1 CID I130N (domain or fragment) MQQDDDFQNFVATLESFKDLKSGISGSRIKKLTTYALDHIDIESKIISLIIDYSRLCPDSHKLGSLYIIDSIGRAYLDETRSNSNSSSNKPGTCAHAINTLGEVIQELLSDAIAKSNQDHKEKIRMLLDNWDRSGLFQKSYLNAIRSKCFAMD |  |
| 6.1 | Nrd1 CID K21D (domain or fragment) MQQDDDFQNFVATLESFKDLDSGISGSRIKKLTTYALDHIDIESKIISLIIDYSRLCPDSHKLGSLYIIDSIGRAYLDETRSNSNSSSNKPGTCAHAINTLGEVIQELLSDAIAKSNQDHKEKIRMLLDIWDRSGLFQKSYLNAIRSKCFAMD |  |
| 4.5 | Nrd1 CID I130A (domain or fragment) MQQDDDFQNFVATLESFKDLKSGISGSRIKKLTTYALDHIDIESKIISLIIDYSRLCPDSHKLGSLYIIDSIGRAYLDETRSNSNSSSNKPGTCAHAINTLGEVIQELLSDAIAKSNQDHKEKIRMLLDAWDRSGLFQKSYLNAIRSKCFAMD |  |
| 1.4 | Nrd1 CID R133A (domain or fragment) MQQDDDFQNFVATLESFKDLKSGISGSRIKKLTTYALDHIDIESKIISLIIDYSRLCPDSHKLGSLYIIDSIGRAYLDETRSNSNSSSNKPGTCAHAINTLGEVIQELLSDAIAKSNQDHKEKIRMLLDIWDASGLFQKSYLNAIRSKCFAMD |  |
| 1.3 | Nrd1 CID R133G (domain or fragment) MQQDDDFQNFVATLESFKDLKSGISGSRIKKLTTYALDHIDIESKIISLIIDYSRLCPDSHKLGSLYIIDSIGRAYLDETRSNSNSSSNKPGTCAHAINTLGEVIQELLSDAIAKSNQDHKEKIRMLLDIWDGSGLFQKSYLNAIRSKCFAMD |  |
| 1.2 | Nrd1 CID R133D (domain or fragment) MQQDDDFQNFVATLESFKDLKSGISGSRIKKLTTYALDHIDIESKIISLIIDYSRLCPDSHKLGSLYIIDSIGRAYLDETRSNSNSSSNKPGTCAHAINTLGEVIQELLSDAIAKSNQDHKEKIRMLLDIWDDSGLFQKSYLNAIRSKCFAMD |  |
| 1.1 | Nrd1 CID M126A (domain or fragment) MQQDDDFQNFVATLESFKDLKSGISGSRIKKLTTYALDHIDIESKIISLIIDYSRLCPDSHKLGSLYIIDSIGRAYLDETRSNSNSSSNKPGTCAHAINTLGEVIQELLSDAIAKSNQDHKEKIRALLDIWDRSGLFQKSYLNAIRSKCFAMD |  |
